Measured values taken from US20230381328A1, “COMPOUND FOR THE PREVENTION OR TREATMENT OF MYASTHENIA GRAVIS” (ABLEVIA BIOTECH GMBH, priority 2020, published 2023).

Target: monoclonal antibody mAB 198
Assay: peptide microarray, fluorescence, linear peptide

RLNPADY [RLNPADY, linear mimotope]
relative signal [%]: 17.7%

LRLNPADYG
relative signal [%]: 17.3%

LLGGGSLRFNP
relative signal [%]: 16.7%

RYNPADY [RYNPADY, linear mimotope]
relative signal [%]: 16.5%

LRYNPAD [LRYNPAD, linear mimotope]
relative signal [%]: 15.9%

LHWNPAD [LHWNPAD, linear mimotope]
relative signal [%]: 15.7%

NPADYHG [NPADYHG, linear mimotope]
relative signal [%]: 59.3%

LRWNPADYH
relative signal [%]: 15.3%

IDVRLRFNP
relative signal [%]: 15%

RLRVNPADY
relative signal [%]: 14.9%

NPADYGD [NPADYGD, linear mimotope]
relative signal [%]: 14.1%

WNPADYGHI
relative signal [%]: 13.7%

YNLKFNP [YNLKFNP, linear mimotope]
relative signal [%]: 13.7%

SLHWNPADY
relative signal [%]: 13.6%

QWIDVRLRYNP
relative signal [%]: 13.4%

RGNPADYGG
relative signal [%]: 13%

GGGSLRFNP
relative signal [%]: 13%

VRLRWNPADYP
relative signal [%]: 56.7%

LRINPADYG
relative signal [%]: 12.6%

RWNPADF [RWNPADF, linear mimotope]
relative signal [%]: 12.6%

RLRWNPADYHG
relative signal [%]: 12.4%

IDVRLRYNP
relative signal [%]: 12.2%

RINPADY [RINPADY, linear mimotope]
relative signal [%]: 12.2%

NPADYGR [NPADYGR, linear mimotope]
relative signal [%]: 12.2%

RLRFNPADY
relative signal [%]: 11.4%

WNPDDYR [WNPDDYR, linear mimotope]
relative signal [%]: 11.4%

CNLKFNP [CNLKFNP, linear mimotope]
relative signal [%]: 11%

SLRINPADY
relative signal [%]: 11%

LRGNPAD [LRGNPAD, linear mimotope]
relative signal [%]: 48%

RLYWNPADY
relative signal [%]: 11%

QWVDYNLKFNP
relative signal [%]: 10.9%

GGGSLRRNPAD
relative signal [%]: 10.6%

LRWNPADYGGF
relative signal [%]: 10.6%

SLRWNPADYHG
relative signal [%]: 10.6%

NPADYDG [NPADYDG, linear mimotope]
relative signal [%]: 10.3%

DVRLRFNPADY
relative signal [%]: 10%

RRNPADY [RRNPADY, linear mimotope]
relative signal [%]: 9.9%

RPNPADY [RPNPADY, linear mimotope]
relative signal [%]: 9.5%

GSLRRNPAD
relative signal [%]: 9.5%

WNPADYR [WNPADYR, linear mimotope]
relative signal [%]: 40.6%

WNPADYH [WNPADYH, linear mimotope]
relative signal [%]: 9.4%

RWNPADYGH
relative signal [%]: 9.4%

GSLRFNPAD
relative signal [%]: 9.3%

LRINPAD [LRINPAD, linear mimotope]
relative signal [%]: 9.2%

WRLRWNPAD
relative signal [%]: 9%

GNPADYGGI
relative signal [%]: 8.9%

RHNPADY [RHNPADY, linear mimotope]
relative signal [%]: 8.9%

WNPDDYGHV
relative signal [%]: 8.8%

RPNPADYGG
relative signal [%]: 8.6%

DVRLRINPADY
relative signal [%]: 8.5%

LRFNPAD [LRFNPAD, linear mimotope]
relative signal [%]: 37.1%

YNLKYNP [YNLKYNP, linear mimotope]
relative signal [%]: 8.3%

GGGSLRFNPAD
relative signal [%]: 8.1%

VRHRWNPAD
relative signal [%]: 8.1%

NPADYGI [NPADYGI, linear mimotope]
relative signal [%]: 8%
